Laboratory results from the supplement of paper PMC10567573.

B1: FAM46C (parent)
chain: FDHLQNRLIATKNPEEIRGGGLLK

Variants of: B1
Assay: protein stability index of a GFP-peptide fusion (GPS, HEK-293T) (PSI 1-6); higher = more stable
Settings: c terminus: a fixed tail appended
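Further: lentivirally expressed fusions sorted by FACS into six bins by GFP to DsRed ratio, PSI derived from sequencing read proportions per bin multiplied by bin number.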

Row | Variant | protein stability index
1 | FDHLQNRLIATKNPELIRGGGLLK [E16L] | 2.9
2 | FDHLQNRLIATKNPENIRGGGLLK [E16N] | 3.67
3 | FDHLQNRLIATKNPEPIRGGGLLK [E16P] | 2.73
4 | FDHLQNRLIATKNPEQIRGGGLLK [E16Q] | 3.58
5 | FDHLQNRLIATKNPERIRGGGLLK [E16R] | 3.47
6 | FDHLQNRLIATKNPESIRGGGLLK [E16S] | 3.48
7 | FDHLQNRLIATKNPETIRGGGLLK [E16T] | 3.79
8 | FDHLQNRLIATKNPEVIRGGGLLK [E16V] | 3.61
9 | FDHLQNRLIATKNPEWIRGGGLLK [E16W] | 2.5
10 | FDHLQNRLIATKNPEYIRGGGLLK [E16Y] | 3.91
11 | FDHLQNRLIATKNPEEARGGGLLK [I17A] | 4.4
12 | FDHLQNRLIATKNPEECRGGGLLK [I17C] | 4.18
13 | FDHLQNRLIATKNPEEDRGGGLLK [I17D] | 4.52
14 | FDHLQNRLIATKNPEEERGGGLLK [I17E] | 4.26
15 | FDHLQNRLIATKNPEEFRGGGLLK [I17F] | 3.46
16 | FDHLQNRLIATKNPEEHRGGGLLK [I17H] | 4.28
17 | FDHLQNRLIATKNPEEKRGGGLLK [I17K] | 3.39
18 | FDHLQNRLIATKNPEEMRGGGLLK [I17M] | 3.82
19 | FDHLQNRLIATKNPEENRGGGLLK [I17N] | 4.27
20 | FDHLQNRLIATKNPEEPRGGGLLK [I17P] | 3.55
21 | FDHLQNRLIATKNPEEQRGGGLLK [I17Q] | 4.86
22 | FDHLQNRLIATKNPEERRGGGLLK [I17R] | 3.86
23 | FDHLQNRLIATKNPEESRGGGLLK [I17S] | 4.35
24 | FDHLQNRLIATKNPEETRGGGLLK [I17T] | 4.01

Row | Variant | protein stability index
25 | FDHLQNRLIATKNPEEWRGGGLLK [I17W] | 3.44
26 | FDHLQNRLIATKNPEEYRGGGLLK [I17Y] | 3.58
27 | FDHLQNRLIATKNPEEIAGGGLLK [R18A] | 3.75
28 | FDHLQNRLIATKNPEEICGGGLLK [R18C] | 4.44
29 | FDHLQNRLIATKNPEEIDGGGLLK [R18D] | 4.42
30 | FDHLQNRLIATKNPEEIEGGGLLK [R18E] | 4.67
31 | FDHLQNRLIATKNPEEIFGGGLLK [R18F] | 2.98
32 | FDHLQNRLIATKNPEEIIGGGLLK [R18I] | 3.32
33 | FDHLQNRLIATKNPEEIKGGGLLK [R18K] | 4.05
34 | FDHLQNRLIATKNPEEILGGGLLK [R18L] | 3.39
35 | FDHLQNRLIATKNPEEIMGGGLLK [R18M] | 3.03
36 | FDHLQNRLIATKNPEEINGGGLLK [R18N] | 3.83
37 | FDHLQNRLIATKNPEEIPGGGLLK [R18P] | 4.26
38 | FDHLQNRLIATKNPEEIQGGGLLK [R18Q] | 4.37
39 | FDHLQNRLIATKNPEEISGGGLLK [R18S] | 3.77
40 | FDHLQNRLIATKNPEEITGGGLLK [R18T] | 3.2
41 | FDHLQNRLIATKNPEEIVGGGLLK [R18V] | 3.64
42 | FDHLQNRLIATKNPEEIWGGGLLK [R18W] | 2.58
43 | FDHLQNRLIATKNPEEIYGGGLLK [R18Y] | 3.58
44 | FDHLQNRLIATKNPEEIRAGGLLK [G19A] | 3.48
45 | FDHLQNRLIATKNPEEIRCGGLLK [G19C] | 3.57
46 | FDHLQNRLIATKNPEEIRDGGLLK [G19D] | 4.6
47 | FDHLQNRLIATKNPEEIREGGLLK [G19E] | 4.04
48 | FDHLQNRLIATKNPEEIRFGGLLK [G19F] | 1.73

Row | Variant | protein stability index
49 | FDHLQNRLIATKNPEEIRHGGLLK [G19H] | 3.99
50 | FDHLQNRLIATKNPEEIRIGGLLK [G19I] | 3.18
51 | FDHLQNRLIATKNPEEIRKGGLLK [G19K] | 4.26
52 | FDHLQNRLIATKNPEEIRLGGLLK [G19L] | 2.57
53 | FDHLQNRLIATKNPEEIRMGGLLK [G19M] | 2.61
54 | FDHLQNRLIATKNPEEIRNGGLLK [G19N] | 3.79
55 | FDHLQNRLIATKNPEEIRPGGLLK [G19P] | 3.29
56 | FDHLQNRLIATKNPEEIRQGGLLK [G19Q] | 3.74
57 | FDHLQNRLIATKNPEEIRRGGLLK [G19R] | 4.27
58 | FDHLQNRLIATKNPEEIRSGGLLK [G19S] | 3.69
59 | FDHLQNRLIATKNPEEIRTGGLLK [G19T] | 4.01
60 | FDHLQNRLIATKNPEEIRVGGLLK [G19V] | 3.18
61 | FDHLQNRLIATKNPEEIRWGGLLK [G19W] | 1.74
62 | FDHLQNRLIATKNPEEIRYGGLLK [G19Y] | 3.25
63 | FDHLQNRLIATKNPEEIRGAGLLK [G20A] | 3.44
64 | FDHLQNRLIATKNPEEIRGCGLLK [G20C] | 3.21
65 | FDHLQNRLIATKNPEEIRGDGLLK [G20D] | 4.05
66 | FDHLQNRLIATKNPEEIRGFGLLK [G20F] | 2.77
67 | FDHLQNRLIATKNPEEIRGHGLLK [G20H] | 3.72
68 | FDHLQNRLIATKNPEEIRGIGLLK [G20I] | 3.11
69 | FDHLQNRLIATKNPEEIRGKGLLK [G20K] | 3.98
70 | FDHLQNRLIATKNPEEIRGLGLLK [G20L] | 4.19
71 | FDHLQNRLIATKNPEEIRGMGLLK [G20M] | 2.76
72 | FDHLQNRLIATKNPEEIRGNGLLK [G20N] | 3.74

Row | Variant | protein stability index
73 | FDHLQNRLIATKNPEEIRGPGLLK [G20P] | 3.6
74 | FDHLQNRLIATKNPEEIRGQGLLK [G20Q] | 2.42
75 | FDHLQNRLIATKNPEEIRGRGLLK [G20R] | 4.03
76 | FDHLQNRLIATKNPEEIRGSGLLK [G20S] | 3.69
77 | FDHLQNRLIATKNPEEIRGTGLLK [G20T] | 3.51
78 | FDHLQNRLIATKNPEEIRGVGLLK [G20V] | 3.2
79 | FDHLQNRLIATKNPEEIRGWGLLK [G20W] | 3.16
80 | FDHLQNRLIATKNPEEIRGYGLLK [G20Y] | 2.85
81 | FDHLQNRLIATKNPEEIRGGALLK [G21A] | 3.69
82 | FDHLQNRLIATKNPEEIRGGCLLK [G21C] | 3.29
83 | FDHLQNRLIATKNPEEIRGGDLLK [G21D] | 4
84 | FDHLQNRLIATKNPEEIRGGELLK [G21E] | 3.93
85 | FDHLQNRLIATKNPEEIRGGFLLK [G21F] | 2.82
86 | FDHLQNRLIATKNPEEIRGGHLLK [G21H] | 3.94
87 | FDHLQNRLIATKNPEEIRGGILLK [G21I] | 2.92
88 | FDHLQNRLIATKNPEEIRGGKLLK [G21K] | 4.26
89 | FDHLQNRLIATKNPEEIRGGLLLK [G21L] | 2.61
90 | FDHLQNRLIATKNPEEIRGGMLLK [G21M] | 3.25
91 | FDHLQNRLIATKNPEEIRGGNLLK [G21N] | 4.51
92 | FDHLQNRLIATKNPEEIRGGPLLK [G21P] | 3.91
93 | FDHLQNRLIATKNPEEIRGGQLLK [G21Q] | 3.41
94 | FDHLQNRLIATKNPEEIRGGRLLK [G21R] | 3.47
